Biological target: HA-neuroligin-1(+B) (UniProt Q62765 46-843)
Experiment: immunostaining of cells or tissue

Sequence of HA-neuroligin-1(+B) (Q62765 46-843): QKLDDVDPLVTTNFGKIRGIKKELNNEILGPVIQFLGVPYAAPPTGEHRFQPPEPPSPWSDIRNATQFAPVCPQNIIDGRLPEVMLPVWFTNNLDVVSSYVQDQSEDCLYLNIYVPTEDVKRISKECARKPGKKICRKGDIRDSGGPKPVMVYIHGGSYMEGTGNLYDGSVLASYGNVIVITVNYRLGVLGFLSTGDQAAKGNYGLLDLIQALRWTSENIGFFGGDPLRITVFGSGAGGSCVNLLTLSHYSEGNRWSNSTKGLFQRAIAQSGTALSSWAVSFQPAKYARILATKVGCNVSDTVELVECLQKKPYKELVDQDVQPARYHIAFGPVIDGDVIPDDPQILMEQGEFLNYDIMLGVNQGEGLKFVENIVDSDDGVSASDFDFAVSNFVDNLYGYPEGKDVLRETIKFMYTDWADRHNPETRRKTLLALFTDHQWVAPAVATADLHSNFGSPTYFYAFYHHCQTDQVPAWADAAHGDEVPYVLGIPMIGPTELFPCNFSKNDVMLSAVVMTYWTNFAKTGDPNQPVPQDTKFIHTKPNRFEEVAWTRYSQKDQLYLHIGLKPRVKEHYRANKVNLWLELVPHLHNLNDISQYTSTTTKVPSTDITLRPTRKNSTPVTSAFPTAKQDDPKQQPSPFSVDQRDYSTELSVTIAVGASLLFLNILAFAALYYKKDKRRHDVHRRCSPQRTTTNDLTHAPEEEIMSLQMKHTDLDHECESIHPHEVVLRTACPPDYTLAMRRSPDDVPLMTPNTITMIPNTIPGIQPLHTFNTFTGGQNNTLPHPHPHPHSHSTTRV

B1: Nrx1β(+S4)-Fc (Fc fusion)
chain: not shown
  Kd: 26.9 nM

Source: publication PMC2896269 (The Journal of neuroscience : the official journal of the …, 2010)
